According to patent US20220412989A1, “COMPOSITIONS AND METHODS FOR DETECTING CELLS UNDERGOING FERROPTOSIS USING AN ANTIBODY” (THE TRUSTEES OF COLUMBIA UNIVERSITY IN THE CITY OF NEW YORK, priority 2020, published 2022):

Tested on: HT-1080 cells
Assay: Immunofluorescence staining of cells treated with cell death inducers, membrane intensity
Assay type: cell-based, human
Method: HT-1080 (ATCC Cat #CRL-7951, RRID:CVCL_0317), A-673, SK-BR-3, SK-LMS-1 and Huh-7 cells were treated with 1 μM RSL3 for 4 h, 15 μM erastin for 8 h, 10 μM IKE for 8 h, 15 μM FINO2 for 8 h, 10 μM FIN56 for 8 h, 100 μM tBuOOH for 8 h, 1 μM staurosporine (STS) for 6 h, 2 μM camptothecin (CPT) for 24 h, 1 μM RSL3+5 μM Fer-1 for 4 h and 10 μM IKE+5 μM Fer-1 for 8 h on poly-lysine-coated cover slips (Sigma Aldrich P4832) in 24-well plate. Media were taken out and the cells were gently washed with PBS^++ (PBS with 1 mM CaCl2) and 0.5 mM MgCl2) twice. The cells were fixed and permeabilized by adding 200 μL/well of 4% paraformaldehyde (PFA) in PBS with 0.1% Triton X-100 (PBT), and incubated at room temperature for 18 min. The cells were then washed with PBT three times. Then the cells were blocked with 5% goat serum (ThermoFisher 50197Z) in PBT for 1 h at room temperature. The cells were incubated with purified mouse monoclonal antibodies (1:5 dilution), mouse mAb 3F3 FMA (1:500 dilution), Transferrin Receptor/CD71 Monoclonal Antibody, Clone: H68.4, Invitrogen (Thermo Fisher Scientific Cat #13-6800, RRID:AB_2533029, 1:250 dilution), Cd71 (D7G9X) XP® Rabbit mAb (Cell Signaling Technology Cat #13113, RRID:AB_2715594, 1:100 dilution), CD71 (3B8 2A1) (Santa Cruz Biotechnology Cat #sc-32272, RRID:AB_627167, 1:50 dilution), Tom20 (FL-145) (Santa Cruz Biotechnology Cat #sc-11415, RRID:AB_2207533, 1:250 dilution), PDI antibody [RL90]—ER Marker (Abcam Cat #ab2792, RRID:AB_303304, 1:100 dilution), Gm130 (D6B1) XP® Rabbit mAb (Cell Signaling Technology Cat #12480, RRID:AB_2797933, 1:3200 dilution), Anti-Malondialdehyde antibody (Abcam Cat #ab6463, RRID:AB_305484, 1:400 dilution), Anti-4 Hydroxynonenal antibody (Abcam Cat #ab46544, RRID:AB_722493, 1:50 dilution), ACSL4 Antibody (F-4) (Santa Cruz Biotechnology Cat #sc-365230, RRID:AB_10843105, 1:50 dilution), mouse mAb 1F83 (1:100 dilution), which specifically recognizes the malondialdehyde (MDA)-lysine adduct 4-methyl-1,4-dihydropyridine-3,5-dicarbaldehyde (MDHDC) (Yamada et al., 2001), in PBT with 1% BSA and 5% goat serum overnight at 4° C. The cells were washed with PBT for 5 min three times. The cells were incubated with Goat anti-Mouse IgG (H+L) Highly Cross-Adsorbed Secondary Antibody, Alexa Fluor 594 (Thermo Fisher Scientific Cat #A-11032, RRID:AB_2534091, 1:200 dilution) or Goat anti-Rabbit IgG (H+L) Highly Cross-Adsorbed Secondary Antibody, Alexa Fluor 488 (Thermo Fisher Scientific Cat #A-11034, RRID:AB_2576217, 1:200 dilution) at room temperature for 1 h. The cells were washed with PBT for 5 min three times. ProLong Diamond antifade mountant with DAPI (ThermoFisher P36962) was added to stain the nucleus. All images were captured on a Zeiss LSM 800 confocal microscope at Plan-Apochromat 63x/1.40 Oil DIC objective with constant laser intensity for all samples. When applicable, line-scan analysis was performed on representative confocal microscopy images using Zeiss LSM software to qualitatively visualize fluorescence overlap.
The quantification of the intensity of antibodies was analyzed using CellProfiler 3.1.8 (Carpenter et al., 2006) (CellProfiler Image Analysis Software, RRID:SCR_007358). Nuclei were firstly identified as primary objects using global minimum cross entropy strategy. […] Then mean intensities and size areas of nuclei, cytoplasm and plasma membranes were then measured and reported. […]

B1: 3F3-FMA: murine monoclonal IgG1 raised against ferroptotic membrane fractions; antigen is human transferrin receptor protein 1 (TfR1) (antibody, V domains shown)
VH: EVLLQQSGTELVRPGALVKLSCKASGFNIQDLYIHWVKQRPEQGLEWIGWIDPETDNTIYDPKFQGKASITADTSSNTAYLQLSSLTSEDTAMYYCSTGLLQWYFDVWGAGTAVTVSS
VL: DIVMTQSPSSLAMSIGQKVTMRCKSSQSLLNSYNQKNCLAWYQQKPGQSPKLLLYFVSTRESGVPDRFIGSGSGTDFTLTISSVQAEDLADYFCQQHYSTPLTFGAGTKLELK
- staining / membrane intensity in RSL3-induced ferroptosis (1 μM RSL3, 4 h vs DMSO): stained cell boundaries and the inside puncta became brighter
- cell surface / membrane staining in STS-induced apoptosis (1 μM staurosporine, 6 h): wasn't detected
- cell surface / membrane intensity in camptothecin-induced apoptosis (2 μM camptothecin, 24 h): no significant increase
- membrane intensities in H2O2-treated cells (1 mM H2O2, 4 h): didn't observe increased membrane intensities
- staining pattern with other ferroptosis inducers (IKE, erastin, FIN56, FINO2 and tBuOOH, 8 h): the same changes of 3F3-FMA pattern were observed
